The record followed here is patent publication US20180291353A1, “MONOFUNCTIONAL ALDEHYDE AND ALCOHOL DEHYDROGENASES FOR PRODUCTION OF FUELS AND COMMODITY CHEMICALS” (The Regents of the University of California, priority 2015, published 2018).

Assay [1] in a line: ALDH7 activity toward substrates. Type of assay: biochemical. As to conditions: in words.
The subject of assay [2] is butanediol and hydroxybutanone production pathway. The assay can be described thus: Screen of secondary alcohol dehydrogenases in the aldh7-adh2 pathway in E. coli (FIG. 15-17). The note with it: in words; pathway with aldh7-adh2 and acetoacetyl-CoA reductase. Type of assay: cell-based. From the text: FIG. 16 illustrates the results of a screen of secondary alcohol dehydrogenases when expressed in the pathway described in FIG. 15. The production titers of 4-hydroxy-2-butanone (hydroxybutanone) and 1,3-butanediol (butanediol) when the illustrated secondary alcohol dehydrogenases are expressed in the pathway illustrated in FIG. 15 are shown. Data are mean±s.d. (n=3).
FIG. 17 illustrates how expression of specific proteins in the pathway described in FIG. 15 can control butanediol:hydroxybutanone ratios through pathway design. The production titers of 4-hydroxy-2-butanone (hydroxybutanone) and 1,3-butanediol (butanediol) when the illustrated proteins are expressed in the pathway illustrated in FIG. 15 are shown. Data are mean±s.d. (n=3).
Unless otherwise described, applicable materials and methods as described in this Example are analogous to those described in Example 1.
At least four SADHs enabled butanediol production of 2 g/L with hydroxybutanone production limited to 250 mg/L or less (FIG. 16). This pathway design appears preferable to enforcing specificity through an ADH that will not accept acetoacetaldehyde; acetoacetaldehyde need not be a dead end product and can still be channeled to butanediol production.

For assay [3], the system named is n-butanol biosynthetic pathway. In words: Butanol and ethanol fuel titer in E. coli DH1 expressing the n-butanol pathway with AdhE2 variants or homologs (FIG. 2, FIG. 3). Type of assay: cell-based. As to conditions: E. coli DH1, compared with WT AdhE2. From the text:
The fuel titer of butanol in E. coli cells expressing the biosynthetic pathway shown in FIG. 6A with various particular AdhE2 variants incorporating amino acid substitutions from the AdhE2 superfamily is shown. The x-axis labels indicate the particular AdhE2 variant being expressed in the E. coli, with wild-type AdhE2 also shown for comparison. In each figure, E. coli DH1 was transformed with pT5T33-phaA.HBD-crt and pCDF3-ter-AdhE2 variant as indicated. FIG. 2A illustrates the butanol production for AdhE2 variants #76930 to #76978. FIG. 2B illustrates the butanol production for AdhE2 variants #76979 to #77025, and also includes WT AdhE2 (GI 499193180). AdhE2 and variants thereof shown in FIG. 2A and FIG. 2B include SEQ ID NOs: 60-154. […]
. […] Samples were quantified after 3 d of cell culture.
Samples (2 ml) were removed from cell culture and cleared of biomass by centrifugation at 20,817 g for 2 min using an Eppendorf 5417R centrifuge. […] These samples were then analyzed on a Trace GC Ultra (Thermo Scientific) using an HP-5MS column (0.25 mm×30 m, 0.25 μM film thickness, J & W Scientific). The oven program was as follows: 75° C. for 3 min, ramp to 300° C. at 45° C. min^−1, 300° C. for 1 min. n-Butanol was quantified by flame ionization detection (FID) (flow: 350 ml min^−1 air, 35 ml min^−1 H2 and 30 ml min^−1 helium). […]

Assay [4] has as its system butanol production pathway. The assay can be described thus: Butanol and ethanol production in E. coli MC1.24 (quintuple KO) with bifunctional or monofunctional dehydrogenases (FIG. 5). The class given is cell-based. The note with it: E. coli MC1.24, FIG. 5. From the text: FIG. 5 illustrates genetically engineered improvement of a butanol production pathway composed of monofunctional aldehyde and alcohol dehydrogenases. The fuel titer of either butanol or ethanol in E. coli cells expressing the biosynthetic pathway shown in FIG. 6A with various particular alcohol and/or aldehyde dehydrogenases is shown. Specifically, E. coli MC1.24 (quintuple KO) was transformed with pT533-phaA.HBD, pBBR2-aceE.F.lpd and 1: pCWO.trc-ter-adhE2, 2: pCDF3-aldh16, 3: pCWori-ter-aldh16.CaADH, or 4: pCWO.trc-ter-aldh16.CaADH as indicated.
. The cultures were grown at 37° C. in a rotary shaker (200 r.p.m.) and induced with IPTG (1.0 mM) at OD600=0.35-0.45. At this time, the growth temperature was reduced to 30° C., and the culture flasks were sealed with Parafilm M (Pechiney Plastic Packaging) to prevent product evaporation for aerobic cultures. Anaerobic cultures were sealed and the headspace was sparged with argon for 5 minutes immediately follow induction. Aerobic cultures were unsealed for 10 to 30 min every 24 h then resealed with Parafilm M, and additional glucose (1% (w/v)) was added 1 day post-induction. Samples were quantified after 3 d of cell culture.
Samples (2 ml) were removed from cell culture and cleared of biomass by centrifugation at 20,817 g for 2 min using an Eppendorf 5417R centrifuge. The supernatant or cleared medium sample was then mixed in a 9:1 ratio with an aqueous solution containing the isobutanol internal standard (10,000 mg l^−1). These samples were then analyzed on a Trace GC Ultra (Thermo Scientific) using an HP-5MS column (0.25 mm×30 m, 0.25 μM film thickness, J & W Scientific). The oven program was as follows: 75° C. for 3 min, ramp to 300° C. at 45° C. min^−1, 300° C. for 1 min. n-Butanol was quantified by flame ionization detection (FID) (flow: 350 ml min^−1 air, 35 ml min^−1 H2 and 30 ml min^−1 helium). Samples containing n-butanol levels below 500 mg 1^−1 were requantified after extraction of the cleared medium sample or standard (500 μl) with toluene (500 μl) containing the isobutanol internal standard (100 mg 1^−1) using a Digital Vortex Mixer (Fisher) for 5 min set at 2,000. The organic layer was then quantified using the same GC parameters with a DSQII single-quadrupole mass spectrometer (Thermo Scientific) using single-ion monitoring (m/z 41 and 56) concurrent with full scan mode (m/z 35-80). Samples were quantified relative to a standard curve of 2, 4, 8, 16, 31, 63, 125, 250, 500 mg 1^−1 n-butanol for MS detection or 125, 250, 500, 1,000, 2,000, 4,000, 8,000 mg 1^−1 n-butanol for FID detection. Standard curves were prepared freshly during each run and normalized for injection volume using the internal isobutanol standard (100 or 1,000 mg 1^−1 for MS and FID, respectively). […]

B1: ALDH7: monofunctional aldehyde dehydrogenase (protein, listed as Clostridium botulinum)
chain: MERNLSVLSQTNDLKITKRTEGDKSNNKESYLGVFKKVENAITKAIYAQKKLSLYYTKEDRERIIKSIRKATLENKEILAKMIVDETHMGRYEDKILKHELVAKYTPGTEDLITTAWSGDQGLTLVEMSPYGVIGAITPSTNPTETVICNSIGMIAAGDSVVFNGHPGAKKCVAFAVDMINKAVIREGGPENLVTTVENPTMESLNVIMKHPYIKLLCGTGGPGLIKTLLNSGKKAIGAGAGNPPVIVDDSADIDKAAKNIIEGCSFDNNLPCIAEKEVFVFENVANDLIQNMIKNNAVLINENQVSKLLDLVLLERKDETLEYAINKKWVGKDAKLFLDKIGIKASDNVRCIICEVDANHPFVMTELMMPILPIVRVKDVDEAIECAKTAEQRKRHSAYMYSKNIDNLNRFEKEIDTTIFVKNAKSFAGVGFGAEGFTTFTIAGPTGEGITSARNFTRQRRCVLAG
On to B1, for which the “activity toward substrates including acetoacetyl-CoA and 3-hydroxybutyryl-CoA” value in assay [1] is recorded as “displays activity”.

B2: SADH1: secondary alcohol dehydrogenase from Pichia kudriavzevii (protein, listed as Pichia kudriavzevii)
chain: MFMKGLTYLKPGIVSWQSIPKPVLKKPTDVIGKVVTTTICGSDLHILKGDVPETTALAATTGHGVVLGHEAIIEIESVGDAVKNFSKGDVCIVSCITSCGKCYYCKRNLQSHCTGHMEGTSGWVFGHEIDGTQAEYVRVPCADYGLYKVPEGVAYEKLLMLSDAIPTSYEIGILNGEVKEGDSVAVVGLGPVGLSALLTAINKKPKQLIAIDMDENRLDLAKQLGATHIINSTNMPNEEVAKKVQEISKDLEPGRESGVDVAIECVGVPPTFELCEDLIASGGTIANVGVHGAKVDLKLQELWIKNCKITTGLVSTYSIPDLLNQVADGSLDPSPIITHHFKFDEFEKAYQVFKDAKNTKAMKIILTP
With B2, the butanediol titer entry in assay [2] is “maximum butanediol titer”.

B3: ALDH16: monofunctional aldehyde dehydrogenase specific for C4 substrates (protein, listed as Clostridium beijerinckii)
chain: MNKDTLIPTTKDLKVKTNGENINLKNYKDNSSCFGVFENVENAISSAVHAQKILSLHYTKEQREKIITEIRKAALQNKEVLATMILEETHMGRYEDKILKHELVAKYTPGTEDLTTTAWSGDNGLTVVEMSPYGVIGAITPSTNPTETVICNSIGMIAAGNAVVFNGHPCAKKCVAFAVEMINKAIISCGGPENLVTTIKNPTMESLDAIIKHPSIKLLCGTGGPGMVKTLLNSGKKAIGAGAGNPPVIVDDTADIEKAGRSIIEGCSFDNNLPCIAEKEVFVFENVADDLISNMLKNNAVIINEDQVSKLIDLVLQKNNETQEYFINKKWVGKDAKLFLDEIDVESPSNVKCIICEVNANHPFVMTELMMPILPIVRVKDIDEAIKYAKIAEQNRKHSAYIYSKNIDNLNRFEREIDTTIFVKNAKSFAGVGYEAEGFTTFTIAGSTGEGITSARNFTRQRRCVLAG
Regarding B3, the “butanol:ethanol ratio” value in assay [3] is on record as “favorable”. In addition, in assay [4], the butanol production came out at 1 g/L and the ethanol production is on record as 0.5 g/L.
